Data from patent US12723100 (CSPC MEGALITH BIOPHARMACEUTICAL, dated 2026).

T1: full-length human Nectin-4 on cells (human, UniProt Q96NY8 32-510)
T1 construct: the cell is named under assay; also called CHO-Nectin-4 cells; Nectin-4-CHO
T1 sequence: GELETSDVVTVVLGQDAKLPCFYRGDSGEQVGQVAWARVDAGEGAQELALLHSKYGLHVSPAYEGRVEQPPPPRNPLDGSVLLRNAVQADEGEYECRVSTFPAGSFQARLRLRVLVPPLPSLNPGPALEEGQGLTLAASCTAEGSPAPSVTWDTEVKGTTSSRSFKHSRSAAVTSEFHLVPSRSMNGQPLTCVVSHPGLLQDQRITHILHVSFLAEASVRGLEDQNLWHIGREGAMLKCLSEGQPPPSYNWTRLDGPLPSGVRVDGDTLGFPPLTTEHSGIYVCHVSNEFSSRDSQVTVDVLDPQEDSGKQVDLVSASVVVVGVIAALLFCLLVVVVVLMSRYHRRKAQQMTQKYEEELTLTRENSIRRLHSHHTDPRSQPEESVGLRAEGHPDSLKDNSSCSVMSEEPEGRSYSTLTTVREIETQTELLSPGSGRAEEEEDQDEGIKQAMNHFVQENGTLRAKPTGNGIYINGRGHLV

T2: recombinant human Nectin4-His protein (human, UniProt Q96NY8 32-349)
T2 construct: Analyte of the SPR assay; May be the same protein as m12; also called human Nectin-4 ECD; not shown: His tag
T2 sequence: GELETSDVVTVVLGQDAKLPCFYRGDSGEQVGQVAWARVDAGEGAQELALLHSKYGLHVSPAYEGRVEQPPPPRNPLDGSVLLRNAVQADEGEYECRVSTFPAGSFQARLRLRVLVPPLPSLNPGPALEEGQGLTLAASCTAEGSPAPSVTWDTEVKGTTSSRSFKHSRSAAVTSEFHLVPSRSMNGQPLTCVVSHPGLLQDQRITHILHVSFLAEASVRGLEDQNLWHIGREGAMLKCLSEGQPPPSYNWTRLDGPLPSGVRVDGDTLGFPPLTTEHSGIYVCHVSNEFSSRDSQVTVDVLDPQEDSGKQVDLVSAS

T3: human recombinant Nectin-4 protein (extracellular domain) (human, UniProt Q96NY8 32-349)
T3 construct: also called recombinant Nectin-4 (extracellular domain); human Nectin-4 recombinant protein
T3 sequence: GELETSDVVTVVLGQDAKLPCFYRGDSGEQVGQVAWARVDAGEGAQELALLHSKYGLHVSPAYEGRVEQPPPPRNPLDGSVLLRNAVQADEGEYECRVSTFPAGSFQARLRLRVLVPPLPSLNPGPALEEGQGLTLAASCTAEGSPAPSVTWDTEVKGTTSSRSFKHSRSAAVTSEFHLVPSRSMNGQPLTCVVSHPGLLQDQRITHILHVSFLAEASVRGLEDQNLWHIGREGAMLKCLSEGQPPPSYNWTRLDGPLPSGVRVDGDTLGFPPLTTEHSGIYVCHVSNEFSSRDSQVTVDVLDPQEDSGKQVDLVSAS


Legend:
[1] = biological target: T1, full-length human Nectin-4 on cells; test: flow cytometry competition on CHO-Nectin-4 cells; competitor biotinylated human TIGIT
Protocol: The ability of disclosed Nectin4-specific antibodies to block TIGIT binding to CHO-Nectin-4 cells was assessed by FACS. Briefly, CHO-Nectin-4 cells were incubated with dilutions of the disclosed purified recombinant antibodies. Then, biotinylated human TIGIT protein (SinoBiologic, catalog: 10917-H08H-B, lot: LC13AP0902) was added to the plate. After 30-minute incubation, cells were washed, followed by adding Streptavidin Alexa 647 (1:1000) to the samples. After a 30 minute incubation, the samples were analyzed on a flow cytometry instrument (Intellicyte, IQue plus, Sartorius) for TIGIT blocking activity. The positive control antibody used in this blocking assay is PC2, a Nectin-4 antibody with known blocking activity.

[2] = biological target: T2, recombinant human Nectin4-His protein; test: SPR (BIAcore 3000), antibody captured by anti-human IgG, Nectin4-His as analyte
Protocol: The binding kinetics of the disclosed anti-Nectin-4-specific antibodies to recombinant human Nectin-4 was determined by Surface plasmon resonance (SPR) using BIAcore 3000 system. Briefly, CM5 chip was immobilized via amine coupling chemistry with anti-human IgG antibody (GE, Cat No BR-1000-12, lot 10283568) following the application wizards on Flow cell 4. Flow cell 3 remained unmodified to serve as a reference cell for subtraction of systematic instrument noise and drift. Run Fc4-3 detection with double blank (Fc3 and blank analyte buffer). Antibody samples were diluted to 1 ug/mL in HBS-EP and injected at a flow rate of 10 ul/min for 1 minute. Analyte recombinant human Nectin4-His protein was diluted from 10 to 0.156 nM ([…], 5 points to 0 nM in HBS-EP buffer) and injected at 50 uL/minute for 2 minutes, followed by 6 minutes dissociation. All the analyses were performed with double blanks, Fc3 and blank analyte buffer, to reduce the background. Data were analyzed using BIAevaluation software (version 4.1.1) by 1:1 binding with mass transfer model with global fit to determine apparent binding kinetics.

[3] = biological target: T1, full-length human Nectin-4 on cells; test: cell-based or functional assay
[4] = biological target: T1, full-length human Nectin-4 on cells; test: flow cytometry, CHO-Nectin-4 cells
Protocol: The binding specificity of the disclosed anti-Nectin-4 antibodies was also assessed by FACS. Briefly, CHO-Nectin-4 cells (vs. parental CHO cells) or endogenous cell lines expressing Nectin-4 (T-47D) were incubated with dilutions of purified recombinant antibodies. Cells were washed, and specific antibody binding was detected with Alexa 647 labeled goat anti-mouse IgG antibody. Flow cytometric analysis was performed on a flow cytometry instrument (Intellicyte, IQue plus, Sartorius).
N4_mAb 1 to N4_mAb 8 antibodies bind to CHO-Nectin-4 cells and SKBR3 cells by FACS.

[5] = biological target: T3, human recombinant Nectin-4 protein …; test: ELISA, recombinant human Nectin-4 coated on plate
Protocol: The binding specificity of the disclosed anti-Nectin-4 antibodies was assessed by ELISA. Briefly, human recombinant Nectin-4 protein was directly coated to ELISA plates. Purified antibodies were then added to the plates followed by detection by goat-anti-mouse IgG-HRP. After addition of ABTS substrate, ELISA plates were read using an ELISA plate reader (Bioteck). The controls depicted in FIG. 2: PC1 refers to a reference antibody (known to be a Nectin-4 specific recombinant antibody, made by Novarock Biotherapeutics, lot no: 03042020KD); the negative control is a human IgG1 (Dendritics, catalog no: DDXCH01P-100, lot no: DDXCH01-028).
The ELISA binding EC50 values of the eight anti-Nectin-4 antibodies, N4_mAb 1 to N4_mAb 8 and the positive control antibody were listed in Table 3 below.

Row | Binder | EC50 [1] [pM] | Kd [2] [pM] | Endocytosis EC50 (cell killing with MMAF-conjugated Fab anti-hFc), Nectin-4-CHO cells [3] [pM] | Endocytosis EC50 (cell killing with MMAF-conjugated Fab anti-hFc), SKBR3 cells [3] [pM] | EC50 [4] [pM] | EC50 [5] [pM]
1 | N4_mAb 1 (antibody, human IgG1, V domains shown, Tested as chimera (murine variable regions, human IgG1/kappa constants); not shown: human IgG1 constant region (Uniprot P01857); human Kappa light chain constant region (UniProt P01834)) VH: QVQLKQSGPGLVQPSQSLSITCTVSGFSLTNYGVNWVRQPPGKGLEWLGVIWSGGSTDYNAAFISRLSISKDISKSQVFFKMNSLQADDTAKYYCAREGYDGYAMDYWGQGTSVTVSS VL: DIQMTQSPASLSVSVGETVTITCRASENIFSSLAWYQQKQGKSPQLLVYGATNLADGVPSRFSGSGSGTQYSLKINSLQSEDFGTYWCQHFWGNPWTFGGGTKLEIK | 910 | 1250 | 360 | 2140 | 290 | 140
2 | N4_mAb 5 (antibody, human IgG1, V domains shown, Tested as chimera (human IgG1/kappa constants); not shown: human IgG1 constant region (Uniprot P01857); human Kappa light chain constant region (UniProt P01834)) VH: EVQLQQSGPDLVKPGASVKISCKASGYSFTGHYMHWVKQSHGKSLEWIGRVNPNNGGSSYNQKFKDKAILTVDKSSTTAYMELRSLTSEDSAVYYCARDPLGGSYGFAYWGQGTLVTVSA VL: DIVLTQSPASLAVSLGQRATISCRASQSVTTSSYSYMHWYQQKPGQPPKLLIKYASNLESGVPARFSGSGSGTDFTLNIHPVEEEDTATYYCQHSWEIPYTFGGGTKLEMK | 3110 | 1580 | 450 | 850 | 380 | 130
3 | N4_mAb 6 (antibody, human IgG1, V domains shown, Tested as chimera (murine variable regions, human IgG1/kappa constants); not shown: human IgG1 constant region (Uniprot P01857); human Kappa light chain constant region (UniProt P01834)) VH: QVQLQQSGPELVKPGASVRISCKASGYTFTTYYIHWVKQRPGQGLEWIGWIYPGNVNTKYTENFKDKATLTADKSSSTAYMQLSSLTSEDSAVYFCARGLYYFDFWGQGTTLTVSS VL: SIVMTQTPKFLLVSAGDRVTITCKASQSVNNDVAWYQQKPGQSPKLLIYYASNRDTGVPDRFTGSGFGTDFTFTISSVQAEDLAVYFCQQDYSSPYTFGGGTKLEIK | 310 | 392 | 440 | 1780 | 120 | 30
4 | N4_mAb 7 (antibody, human IgG1, V domains shown, Tested as chimera (murine variable regions, human IgG1/kappa constants); not shown: human IgG1 constant region (Uniprot P01857); human Kappa light chain constant region (UniProt P01834)) VH: QVQLQQSGPELVKPGASVKMSCKASGYTFTTYYIHWVKQRPGQGLEWIGWIYPGNAGIKSNEKFKGKTTLTADKSSSTAYMLLSSLTSEDSAIYFCARGVYFFDYWGQGTTLTVSS VL: SIVMTQTPKFLLVSAGDRVTITCKASQSVNNDVSWFQQKPGQSPKLLIYYASNRYTGVPDRFSGSGYGTDFTFTITTVQAEDLAVYFCQQDYSSPYTFGGGTKLEIK | 750 | 390 | 210 | 610 | 180 | 40
5 | N4_mAb 8 (antibody, human IgG1, V domains shown, Tested as chimera (murine variable regions, human IgG1/kappa constants); not shown: human IgG1 constant region (Uniprot P01857); human Kappa light chain constant region (UniProt P01834)) VH: QVQLQQSGPVLVKPGASVRISCKASGYTFTSYYIHWVKQRPGQGLEWIGWIYPGNVNTKYNENFRDKATLTADKSSSTSYMQLSSLTSEDSAVYFCARGIYYFDYWGQGTTLTVSS VL: IIVMTQTPKFLLVSAGDRVTITCKASQSVNNDVAWYQEKPGQSPKLLIYYASNRDTGVPDRFTGSGYGTDFTFTISTVQAEDLAVYFCHQDYSSPFTFGSGTKLEIK | 1370 | 375 | 430 | 990 | 230 | 140
6 | N4_mAb 2 (antibody, human IgG1, V domains shown, Tested as chimera (human IgG1/kappa constants); not shown: human IgG1 constant region (Uniprot P01857); human Kappa light chain constant region (UniProt P01834)) VH: QVQLKQSGPNLVQPSQSLSITCTVSGFSLTTYGAHWVRQSPGKGLEWLGVIWRGGSTDYNAAFMSRLSITKDNSKSQVFFKMNSLQADDTAIYYCAKIGYDGYAMDNWGQGTSVTVSS VL: DFQVTQSPASLSASVGETVTITCRTSENIHNYLAWYQQKQGKSPQLLVYNAKTLADGVPSRFSGSGSGTQYSLKINSLQPEDFGTYYCQHFWSSPWTFGGGTKLEIK | 3040 | 884 | 560 | 740 | 640 | 120
7 | N4_mAb 3 (antibody, human IgG1, V domains shown, Tested as chimera (human IgG1/kappa constants); not shown: human IgG1 constant region (Uniprot P01857); human Kappa light chain constant region (UniProt P01834)) VH: EVQLQQSGAELVKPGASVKLSCTVSGFNIKDTYMHWVKQRPEQGLEWIGRIDPANGNTKYDPKFQGKATIIADKASNTAYLQLSSLTSEDAAVYYCAHYYGSSYFAMDCWGQGTSVTVSS VL: DIVMTQSHKFMSTSVGDRVSITCKASQDVSTAVAWYQQKPGQSPKLLIYWASTRHTGVPDRFTGSGSGTDYTLTISSVQTEDLALYYCQQHYSTPLTFGAGTKLELK | 940 | 17200 | 530 | 630 | 750 | 1510
8 | N4_mAb 4 (antibody, human IgG1, V domains shown, Tested as chimera (human IgG1/kappa constants); not shown: human IgG1 constant region (Uniprot P01857); human Kappa light chain constant region (UniProt P01834)) VH: DVQLQESGPDLVKPSQSLSLTCTVTGYSITSAYNWHWIRQFPGNKLEWMGYIHYSGRTNYNPSLKSRISITRDTSKNQFFLQLNSLTTEDTATYYCARWITTATGWYLDVWGAGTTVTVSS VL: not shown |  | 1260 | 630 | 1580 | 570 | 1120
